Key:
Test in all cases: flow cytometry, transfected 293T cells
[1] = target: CHIKV E2-E1 envelope glycoproteins (strain S27), E2 mutant A41S (chikungunya virus strain S27) (UniProt Q8JUX5)
[2] = target: CHIKV E2-E1 envelope glycoproteins (strain S27), E2 mutant D117A (chikungunya virus strain S27) (UniProt Q8JUX5)
[3] = target: CHIKV E2-E1 envelope glycoproteins (strain S27), E2 mutant D43A (chikungunya virus strain S27) (UniProt Q8JUX5)
[4] = target: CHIKV E2-E1 envelope glycoproteins (strain S27), E2 mutant D59A (chikungunya virus strain S27) (UniProt Q8JUX5)
[5] = target: CHIKV E2-E1 envelope glycoproteins (strain S27), E2 mutant D77A (chikungunya virus strain S27) (UniProt Q8JUX5)
[6] = target: CHIKV E2-E1 envelope glycoproteins (strain S27), E2 mutant E109A (chikungunya virus strain S27) (UniProt Q8JUX5)
[7] = target: CHIKV E2-E1 envelope glycoproteins (strain S27), E2 mutant E35A (chikungunya virus strain S27) (UniProt Q8JUX5)
[8] = target: CHIKV E2-E1 envelope glycoproteins (strain S27), E2 mutant G55A (chikungunya virus strain S27) (UniProt Q8JUX5)
[9] = target: CHIKV E2-E1 envelope glycoproteins (strain S27), E2 mutant G82A (chikungunya virus strain S27) (UniProt Q8JUX5)
[10] = target: CHIKV E2-E1 envelope glycoproteins (strain S27), E2 mutant G95A (chikungunya virus strain S27) (UniProt Q8JUX5)
[11] = target: CHIKV E2-E1 envelope glycoproteins (strain S27), E2 mutant H131A (chikungunya virus strain S27) (UniProt Q8JUX5)
[12] = target: CHIKV E2-E1 envelope glycoproteins (strain S27), E2 mutant H99A (chikungunya virus strain S27) (UniProt Q8JUX5)
[13] = target: CHIKV E2-E1 envelope glycoproteins (strain S27), E2 mutant I37A (chikungunya virus strain S27) (UniProt Q8JUX5)
[14] = target: CHIKV E2-E1 envelope glycoproteins (strain S27), E2 mutant I74A (chikungunya virus strain S27) (UniProt Q8JUX5)
[15] = target: CHIKV E2-E1 envelope glycoproteins (strain S27), E2 mutant K107A (chikungunya virus strain S27) (UniProt Q8JUX5)
[16] = target: CHIKV E2-E1 envelope glycoproteins (strain S27), E2 mutant K47A (chikungunya virus strain S27) (UniProt Q8JUX5)
[17] = target: CHIKV E2-E1 envelope glycoproteins (strain S27), E2 mutant K66A (chikungunya virus strain S27) (UniProt Q8JUX5)
[18] = target: CHIKV E2-E1 envelope glycoproteins (strain S27), E2 mutant L102A (chikungunya virus strain S27) (UniProt Q8JUX5)
[19] = target: CHIKV E2-E1 envelope glycoproteins (strain S27), E2 mutant L46A (chikungunya virus strain S27) (UniProt Q8JUX5)
[20] = target: CHIKV E2-E1 envelope glycoproteins (strain S27), E2 mutant M70A (chikungunya virus strain S27) (UniProt Q8JUX5)
[21] = target: CHIKV E2-E1 envelope glycoproteins (strain S27), E2 mutant N72A (chikungunya virus strain S27) (UniProt Q8JUX5)
[22] = target: CHIKV E2-E1 envelope glycoproteins (strain S27), E2 mutant P128A (chikungunya virus strain S27) (UniProt Q8JUX5)
[23] = target: CHIKV E2-E1 envelope glycoproteins (strain S27), E2 mutant P75A (chikungunya virus strain S27) (UniProt Q8JUX5)
[24] = target: CHIKV E2-E1 envelope glycoproteins (strain S27), E2 mutant R68A (chikungunya virus strain S27) (UniProt Q8JUX5)
[25] = target: CHIKV E2-E1 envelope glycoproteins (strain S27), E2 mutant S122A (chikungunya virus strain S27) (UniProt Q8JUX5)
[26] = target: CHIKV E2-E1 envelope glycoproteins (strain S27), E2 mutant S51A (chikungunya virus strain S27) (UniProt Q8JUX5)
[27] = target: CHIKV E2-E1 envelope glycoproteins (strain S27), E2 mutant T110A (chikungunya virus strain S27) (UniProt Q8JUX5)
[28] = target: CHIKV E2-E1 envelope glycoproteins (strain S27), E2 mutant T116A (chikungunya virus strain S27) (UniProt Q8JUX5)
[29] = target: CHIKV E2-E1 envelope glycoproteins (strain S27), E2 mutant T126A (chikungunya virus strain S27) (UniProt Q8JUX5)
[30] = target: CHIKV E2-E1 envelope glycoproteins (strain S27), E2 mutant T42A (chikungunya virus strain S27) (UniProt Q8JUX5)
[31] = target: CHIKV E2-E1 envelope glycoproteins (strain S27), E2 mutant V113A (chikungunya virus strain S27) (UniProt Q8JUX5)
[32] = target: CHIKV E2-E1 envelope glycoproteins (strain S27), E2 mutant V50A (chikungunya virus strain S27) (UniProt Q8JUX5)
[33] = target: CHIKV E2-E1 envelope glycoproteins (strain S27), E2 mutant V85A (chikungunya virus strain S27) (UniProt Q8JUX5)

Substance	Binding Reactivity (% WT) [1] [% WT]	Binding Reactivity (% WT) [2] [% WT]	Binding Reactivity (% WT) [3] [% WT]	Binding Reactivity (% WT) [4] [% WT]	Binding Reactivity (% WT) [5] [% WT]	Binding Reactivity (% WT) [6] [% WT]	Binding Reactivity (% WT) [7] [% WT]	Binding Reactivity (% WT) [8] [% WT]	Binding Reactivity (% WT) [9] [% WT]	Binding Reactivity (% WT) [10] [% WT]	Binding Reactivity (% WT) [11] [% WT]	Binding Reactivity (% WT) [12] [% WT]	Binding Reactivity (% WT) [13] [% WT]	Binding Reactivity (% WT) [14] [% WT]	Binding Reactivity (% WT) [15] [% WT]	Binding Reactivity (% WT) [16] [% WT]	Binding Reactivity (% WT) [17] [% WT]	Binding Reactivity (% WT) [18] [% WT]	Binding Reactivity (% WT) [19] [% WT]	Binding Reactivity (% WT) [20] [% WT]	other results
CHIKV mAb IM-CKV063 (antibody)	51.1	74.2	8.3	81.1	92.2	76.6	19.1	83.3	91.1	88.9	16.5	63.8	26	106	86.8	72.1	84.2	24.1	2.7	81.7	Binding Reactivity (% WT) [21]: 114 % WT; Binding Reactivity (% WT) [22]: 86 % WT; Binding Reactivity (% WT) [23]: 96.4 % WT; Binding Reactivity (% WT) [24]: 67.1 % WT; Binding Reactivity (% WT) [25]: 82.8 % WT; Binding Reactivity (% WT) [26]: 89.8 % WT; Binding Reactivity (% WT) [27]: 88.1 % WT; Binding Reactivity (% WT) [28]: 104 % WT; Binding Reactivity (% WT) [29]: 83.4 % WT; Binding Reactivity (% WT) [30]: 111 % WT; Binding Reactivity (% WT) [31]: 79.8 % WT; Binding Reactivity (% WT) [32]: 64.1 % WT; Binding Reactivity (% WT) [33]: 74.5 % WT
CHIKV mAb C9 (antibody)	70.7	74.4	11.1	71.8	93.3	109	22.2	75.9	90.2	86.2	24.4	57.4	30.4	108	95.6	84	85.7	31.2	1.7	81	Binding Reactivity (% WT) [21]: 112 % WT; Binding Reactivity (% WT) [22]: 112 % WT; Binding Reactivity (% WT) [23]: 98.5 % WT; Binding Reactivity (% WT) [24]: 64.8 % WT; Binding Reactivity (% WT) [25]: 98.7 % WT; Binding Reactivity (% WT) [26]: 85.3 % WT; Binding Reactivity (% WT) [27]: 88 % WT; Binding Reactivity (% WT) [28]: 98.2 % WT; Binding Reactivity (% WT) [29]: 106 % WT; Binding Reactivity (% WT) [30]: 102 % WT; Binding Reactivity (% WT) [31]: 81.8 % WT; Binding Reactivity (% WT) [32]: 76.7 % WT; Binding Reactivity (% WT) [33]: 77.8 % WT

— US20240124553A1
